In publication PMC12102759:

B1: TET3 peptide 460-475 (Methylcytosine dioxygenase TET3), 16-mer library wild type / NSP3 SUD-M (ORF1ab Nsp3c SUD-M, residues 1356-1493) (parent)
chain 1: MAELEQLLGSASDYIQ
chain 2: LPSIISNEKQEILGTVSWNLREMLAHAEETRKLMPVCVETKAIVSTIQRKYKGIKIQEGVVDYGARFYFYTSKTTVASLINTLNDLNETLVTMPLGYVTHGLNLEEAARYMRSLKVPATVSVSSPDAVTAYNGYLTSS
B2: NEK9 peptide 738-753 (Serine/threonine-protein kinase Nek9), 16-mer library wild type / NSP9 (ORF1ab Nsp9, residues 4141-4253) (parent)
chain 1: SGLSIGTVFQSSSPGG
chain 2: NNELSPVALRQMSCAAGTTQTACTDDNALAYYNTTKGGRFVLALLSDLQDLKWARFPKSDGTGTIYTELEPPCRFVTDTPKGPKVKYLYFIKGLNNLNRGMVLGSLAATVRLQ
B3: MBOAT1 peptide 17-32 (Lysophospholipid acyltransferase 1), 16-mer library wild type / NSP3 ADRP (ORF1ab Nsp3b ADRP, residues 1023-1192) (parent)
chain 1: STYLHPLSELLGIPLD
chain 2: not shown
B4: NCOA2 peptide 1075-1090 (Nuclear receptor coactivator 2), 16-mer library wild type / NSP3 UBl1 (ORF1ab Nsp3a Ub1, residues 819-925) (parent)
chain 1: DEGALLDQLYLALRNF
chain 2: APTKVTFGDDTVIEVQGYKSVNITFELDERIDKVLNEKCSAYTVELGTEVNEFACVVADAVIKTLQPVSELLTPLGIDLDEWSMATYYLFDESGEFKLASHMYCSFY

Variants of: B1
Conditions: with NSP3 SUD-M (ORF1ab Nsp3c SUD-M, residues 1356-1493); bait immobilised on MaxiSorp plates (10 µg), library pre-cleared on GST, 2 h binding at 4 °C, five washes; one round per day, days 1-4; value from days 2 and 3; keep out of graded; scale: average fractional NGS count over selection days 2 and 3

Variant	screen value
chain 1 L7P	0
chain 1 L7Q	0
chain 1 L7N	0
chain 1 L7T	0
chain 1 I15G	0
chain 1 I15M	0
chain 1 I15R	0
chain 1 M1K	0
chain 1 M1T	0
chain 1 M1R	0
chain 1 M1H	0
chain 1 M1G	0
chain 1 S12P	0
chain 1 L8I	0
chain 1 L8W	0
chain 1 L8E	0
chain 1 L8S	0
chain 1 A11W	0
chain 1 A11N	0
chain 1 D13G	0
chain 1 D13S	0
chain 1 D13I	0
chain 1 D13F	0
chain 1 D13N	0

Variant	screen value
chain 1 S10G	0
chain 1 Y14T	0
chain 1 Y14F	0
chain 1 L4R	0
chain 1 L4G	0
chain 1 L4Y	0
chain 1 L4M	0
chain 1 E3T	0.000884
chain 1 E3N	0
chain 1 E3W	6.52e-05
chain 1 E3M	0
chain 1 E3Q	0
chain 1 A2R	0
chain 1 A2W	0
chain 1 A2T	0
chain 1 A2H	3.41e-05
chain 1 E5K	0
chain 1 E5D	0.000325
chain 1 E5W	0
chain 1 Q6G	0
chain 1 Q6S	0
chain 1 Q6K	0
chain 1 Q6Y	0
chain 1 Q6P	0

Variants of: B2
Conditions: with NSP9 (ORF1ab Nsp9, residues 4141-4253); bait immobilised on MaxiSorp plates (10 µg), library pre-cleared on GST, 2 h binding at 4 °C, five washes; one round per day, days 1-4; value from days 2 and 3; keep out of graded; scale: average fractional NGS count over selection days 2 and 3

Variant	screen value
chain 1 P14R	0
chain 1 P14E	2.37e-05
chain 1 P14T	0
chain 1 F9T	0
chain 1 F9V	0.000209
chain 1 F9N	9.97e-05
chain 1 F9K	0
chain 1 F9E	0.000224
chain 1 I5E	0
chain 1 G15E	0
chain 1 G15W	0
chain 1 G15A	0
chain 1 G15D	0
chain 1 G15S	0
chain 1 G15V	0.000116
chain 1 G15Q	4.92e-05
chain 1 L3W	0
chain 1 L3V	0.000196
chain 1 Q10I	0
chain 1 Q10E	0.000217

Variant	screen value
chain 1 G2L	0
chain 1 G2I	0
chain 1 G2V	0
chain 1 S4P	0
chain 1 S4K	0
chain 1 S4W	0
chain 1 S4Y	0
chain 1 S4D	0
chain 1 V8K	0
chain 1 V8P	0
chain 1 V8Q	0.000101
chain 1 V8D	0.000118
chain 1 V8E	2.09e-05
chain 1 V8G	0
chain 1 V8A	3.17e-05
chain 1 V8H	0.000119
chain 1 S12D	0
chain 1 S12I	0
chain 1 S12E	0
chain 1 S13Q	0

Variant	screen value
chain 1 S13V	0
chain 1 S13N	2.85e-05
chain 1 S13G	0
chain 1 S1L	0
chain 1 S1E	2.09e-05
chain 1 S1M	1.76e-05
chain 1 S1N	0.000364
chain 1 S1H	0
chain 1 S1Y	0
chain 1 S1D	0.000541
chain 1 T7S	0
chain 1 T7P	0.000499
chain 1 T7E	0.000776
chain 1 T7D	0
chain 1 T7Q	0
chain 1 S11A	0
chain 1 S11N	0
chain 1 S11D	2.69e-05
chain 1 S11T	0

Variants of: B3
Conditions: with NSP3 ADRP (ORF1ab Nsp3b ADRP, residues 1023-1192); bait immobilised on MaxiSorp plates (10 µg), library pre-cleared on GST, 2 h binding at 4 °C, five washes; one round per day, days 1-4; value from days 2 and 3; keep out of graded; scale: average fractional NGS count over selection days 2 and 3

Variant	screen value
chain 1 P14S	1.48e-05
chain 1 P14Q	3.28e-05
chain 1 T2W	2.61e-05
chain 1 T2Y	0.00544
chain 1 T2R	0
chain 1 T2V	0.000388
chain 1 T2S	5.82e-05
chain 1 L4W	0.000705
chain 1 L4E	0
chain 1 E9Y	0
chain 1 E9I	0
chain 1 E9L	0
chain 1 L7A	0
chain 1 L7M	0
chain 1 I13H	8.18e-05
chain 1 I13R	1.08e-05
chain 1 I13V	3.18e-05

Variant	screen value
chain 1 I13D	0
chain 1 I13L	0.00192
chain 1 L15Y	0.000938
chain 1 L15V	0.000529
chain 1 L15W	8.57e-05
chain 1 L15P	0
chain 1 L15T	9.33e-05
chain 1 S1L	0.000154
chain 1 S1F	0.000157
chain 1 G12V	0
chain 1 L10K	0
chain 1 L10T	0
chain 1 L10S	4.6e-05
chain 1 Y3H	3.26e-05
chain 1 Y3E	2.37e-05
chain 1 Y3F	0

Variants of: B4
Conditions: with NSP3 UBl1 (ORF1ab Nsp3a Ub1, residues 819-925); bait immobilised on MaxiSorp plates (10 µg), library pre-cleared on GST, 2 h binding at 4 °C, five washes; one round per day, days 1-4; value from days 2 and 3; keep out of graded; scale: average fractional NGS count over selection days 2 and 3

Variant	screen value
chain 1 L11F	0
chain 1 L11S	0.000175
chain 1 L11M	0
chain 1 L11Q	0
chain 1 N15V	0.00016
chain 1 N15I	2.73e-05
chain 1 N15A	1.68e-05
chain 1 N15H	5.47e-06
chain 1 N15F	0.113
chain 1 N15L	0.000158
chain 1 L6D	0
chain 1 L6G	0
chain 1 A4L	7.15e-06
chain 1 A4Y	0.00107
chain 1 L9H	0
chain 1 L9V	1.9e-05
chain 1 L9T	0
chain 1 G3R	2.99e-05
chain 1 E2N	0
chain 1 R14F	2.17e-05
chain 1 R14Y	5.46e-06
chain 1 R14K	0
chain 1 R14N	2.08e-05
chain 1 R14D	0.000475
chain 1 A12W	0
chain 1 Q8G	8.24e-06
chain 1 Q8P	1.57e-05
